From the supplement of paper PMC10567573 come the findings set out here.

± gives the standard deviation.

The data set can be described thus: protein stability index of a GFP-peptide fusion (GPS, HEK-293T) (PSI 1-6); higher = more stable.
[1] abbreviates: treatment: DMSO, c terminus: a fixed tail appended.
[2] abbreviates: treatment: MLN4924 1 uM, 8 h, c terminus: a fixed tail appended.
[3] abbreviates: treatment: DMSO, c terminus: native.
[4] abbreviates: treatment: MLN4924 1 uM, 8 h, c terminus: native.
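Also: 24-mer peptide tiles fused after GFP, lentivirally expressed, FACS-sorted into six equal bins by GFP/DsRed ratio, decoded by Illumina sequencing, PSI is the read-weighted mean bin number.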

Take ERHKLKRQDADAWTLYKILDSCKQ [SMG5]: the protein stability index runs as follows: under setting [1], 2.75 ± 0.21; under setting [2], 2.9 ± 0.36.
With ERHSDLPPLNPTSWWADLRALARN [SPNS1], the protein stability index by setting is: under setting [1], 3.34 ± 0.5; under setting [2], 3.34 ± 0.38.
As to ERLAHSRAAAAAAVAAATAAVEGS [KCNA4], the protein stability index is, setting by setting: under setting [1], 4.38 ± 0.2; under setting [2], 4.25 ± 0.29.
On to ERSARYQYFVVDPMAEYNMPQYIL [PTPRD], for which the protein stability index was found to be 2.01 ± 0.28 under setting [1] and 2.74 ± 0.99 under setting [2].
With ERSSFYSCAGGRLFQQSCPTGLVF [CHIT1], the protein stability index reads like this: under setting [1], 1.99 ± 0.15; under setting [2], 2.13 ± 0.18.
ESASSQSGCLRISIQKLSNESRYM [NECAB1]: the protein stability index runs as follows: under setting [1], 2.76 ± 0.2; under setting [2], 2.78 ± 0.31.
Take ESEPPAPNIRNMAPNSLSAPTMLH [TRAF3IP2]: the protein stability index by setting is: under setting [1], 4.54 ± 0.24; under setting [2], 4.37 ± 0.34.
As for ESGLRSLRLFQKLEENGDLYLAV [WDR41], the protein stability index is 2.08 ± 0.2 under setting [3] and 2.16 ± 0.36 under setting [4].
On to ESGTKGLFAGFLPRIIKAAPSCAI [SLC25A39], for which the protein stability index was 2.24 ± 0.12 under setting [1] and 2.47 ± 0.28 under setting [2].
The like results for ESHEVPGTLSMGVPQIFKYGETCF [ZNF24] were, in that order, 2.74 ± 0.39 and 2.89 ± 0.73.
ESLREELICLKKNHEEEVNTLRSQ [KRT34]: the protein stability index is 4.91 ± 0.23 under setting [1] and 5.04 ± 0.23 under setting [2].
As for ESRAPSPLLHKDSASLEVVKKDHV [CBY2], the protein stability index runs as follows: under setting [1], 5.18 ± 0.3; under setting [2], 5.27 ± 0.24.
For ESTTVVTTQSAEVGAAETTLTELR [KRT18], the protein stability index amounted to 5.37 ± 0.076 under setting [1] and 5.29 ± 0.22 under setting [2].
Consider ETDHLSMEEEDPMPRQISRQSSVT [TPRG1], for which the protein stability index by setting is: under setting [1], 5.37 ± 0.21; under setting [2], 5.28 ± 0.36.
ETEKEEEEEDREEEDENGLPRRRG [NEUROD6]: the protein stability index reads like this: under setting [1], 5.815 ± 0.053; under setting [2], 5.62 ± 0.39.
Sequence ETLKHIKATEPTETVQTWIELLTG [GOLPH3L] showed a protein stability index under setting [1] of 2.59 ± 0.2 and a protein stability index under setting [2] of 2.86 ± 0.22.
With ETQTLTGWSKGFIGMHREMQVNPI [RHOBTB1], the protein stability index reads like this: under setting [1], 2.89 ± 0.26; under setting [2], 3.12 ± 0.23.
With ETRRRMEMAFNTRCKEENTIILQQ [NLN], the protein stability index came to 2.66 ± 0.36 under setting [1] and 2.98 ± 0.23 under setting [2].
ETWNPFKLQYQLRNVRERIAKNLV [GOLPH3L]: the protein stability index reads like this: under setting [1], 2.37 ± 0.34; under setting [2], 2.37 ± 0.24.
Consider EVALDKGCSQFRLAVLDWNQRAMD [SAT2], for which the protein stability index reads like this: under setting [1], 2.94 ± 0.48; under setting [2], 2.95 ± 0.28.
Taken in the same sequence, the figures for EVRLVPVSFEDPEFKSSFSQSFSL [ATE1] were 2.56 ± 0.41 and 2.74 ± 0.39.
As for FACLSVLFVTVTAVNLSVSTLPSL [KCNG1], the protein stability index was determined as 3.15 ± 0.28 under setting [1] and 3.46 ± 0.23 under setting [2].
The like results for FAIPVGSGLGYIAGSKVKDMAGDW [SPNS1] were, in that order, 2.35 ± 0.28 and 2.21 ± 0.44.
Turning to FAPFIVYYFIMACDQYSCALTGPV [DHCR7], the protein stability index is, setting by setting: under setting [1], 3.01 ± 0.077; under setting [2], 3.2 ± 0.2.
Taken in the same sequence, the figures for FEMLSGFPPFFDDNPFGIYQKILA [PRKX] were 2.47 ± 0.45 and 2.29 ± 0.3.
With FFYDCSNNPISEHFHPTVIGESMY [TENT5C], the protein stability index is, setting by setting: under setting [1], 2.16 ± 0.43; under setting [2], 2.26 ± 0.16.
With FGGMKSSGIGREGAKDSYDFFTEI [ALDH8A1], the protein stability index came to 2.22 ± 0.66 under setting [1] and 2.52 ± 0.27 under setting [2].
FGMAKIDNLLQEMLLGGSPSDAPH [HNF4A]: the protein stability index worked out at 2.8 ± 0.25 under setting [1] and 2.76 ± 0.28 under setting [2].
Regarding FGRLVANVLKSYIGLGHIYSGTFA [CLCN6], the protein stability index was found to be 2.94 ± 0.42 under setting [1] and 2.79 ± 0.33 under setting [2].
For FHCLWDDSFPEGPERLHAIKEQLI [HDAC6], the protein stability index runs as follows: under setting [1], 2.47 ± 0.26; under setting [2], 2.41 ± 0.33.
Taken in the same sequence, the figures for FHEDGPQGPGGDEDDDEEDTDKLL [PSD2] were 5.55 ± 0.32 and 5.59 ± 0.2.
Take FIARLQGSILQFNPEVGIFVSIAQ [SMG5]: the protein stability index came out at 2.77 ± 0.59 under setting [1] and 2.64 ± 0.45 under setting [2].
For FISVFSNLLESKADGIEVSYNACG [ZER1], the protein stability index runs as follows: under setting [1], 2.3 ± 0.49; under setting [2], 2.17 ± 0.17.
Regarding FIVDILQFLDIGPDVTRVGLLQYG [MATN2], the protein stability index is 3.11 ± 0.51 under setting [1] and 2.94 ± 0.82 under setting [2].
As for FLCDLYPLLKLACTNTYVTGLSMI [OR4A15], the protein stability index is 2.82 ± 0.23 under setting [1] and 3.25 ± 0.45 under setting [2].
Taken in the same sequence, the figures for FLKAVLRQERVSLYPFQIHSIALS [CDS1] were 2.01 ± 0.23 and 2.42 ± 0.91.
For FMRTSVKISYIGLMTQSSLETHHY [TMEM106C], the protein stability index by setting is: under setting [1], 3.07 ± 0.75; under setting [2], 2.63 ± 0.38.
In the case of FNCIRAAIAPFQSAGSPPELQGLP [NET1], the protein stability index was 2.67 ± 0.2 under setting [1] and 2.72 ± 0.2 under setting [2].
For FNLTPPICEQAEYHMFQREKVEVQ [KCNAB2], the protein stability index under setting [1] was 3.72 ± 0.24 and the protein stability index under setting [2] is 3.88 ± 0.17.
FPVSVTQQSPAAVSMETYHVTLTL [C2CD2L]: the protein stability index reads like this: under setting [1], 3.29 ± 0.38; under setting [2], 2.9 ± 0.36.
Taken in the same sequence, the figures for FRVAKKRAPKVLGTTLVVGLLAGV [GDAP1] were 2.47 ± 0.86 and 1.82 ± 0.61.
In turn, FSGTPPPPVLSFRLVHTTAIEHFQ [FCHO1] came in with a protein stability index under setting [1] of 2.32 ± 0.24 and a protein stability index under setting [2] of 2.28 ± 0.19.
In the case of FSKQIVLRGKSIKRAPGEETEKEE [NEUROD6], the protein stability index was found to be 4.94 ± 0.28 under setting [1] and 5.1 ± 0.34 under setting [2].
Taken in the same sequence, the figures for FSSNIHTYHVGKQCFFNGVFLGNK [SPATS1] were 2.56 ± 0.39 and 2.05 ± 0.32.
For the sequence FVKDPQGRIIAVFKPKNEEPYGHL [PI4K2A], the protein stability index under setting [1] was 2.32 ± 0.26 and the protein stability index under setting [2] turned out to be 2.9 ± 0.23.
As to FYMRTNPFYPEVELNFISVFWPQL [MMP1], the protein stability index under setting [1] was determined as 3.11 ± 0.38 and the protein stability index under setting [2] was determined as 2.89 ± 0.25.
In the case of FYTAITKKIFKSHLKSSRNSTSVK [P2RY14], the protein stability index was 2.18 ± 0.33 under setting [1] and 2.32 ± 0.55 under setting [2].
Sequence GAARLALLQGAGLDVERWLKPAMT [FCHSD1] came in with a protein stability index under setting [1] of 2.5 ± 0.53 and a protein stability index under setting [2] of 2.45 ± 0.36.
In the case of GAHWMRQLVSFQKLKLTNNHLDPF [TBX5], the protein stability index was 2.18 ± 0.21 under setting [1] and 2.19 ± 0.45 under setting [2].
Consider GAQFEGEKGRALQIRDWRGGRLEN [ZSWIM9], for which the protein stability index is 4.24 ± 0.23 under setting [1] and 3.87 ± 0.57 under setting [2].
As to GARPLSTRVPRAAIVFTDGRAQDD [MATN2], the protein stability index under setting [2] was 4.48 ± 0.68.
Regarding GASDNSIIMWDIGGRKGRTLLLQG [WDFY1], the protein stability index stood at 2.15 ± 0.36 under setting [1] and 2.19 ± 0.35 under setting [2].
For the sequence GATGECQNFLDPGYPLPKLDMNFS [ZNF449], the protein stability index by setting is: under setting [1], 3.47 ± 0.2; under setting [2], 3.67 ± 0.29.
For GCCKRRYLQKIEEFAEMVEREEED [KCNG1], the protein stability index stood at 3.57 ± 0.23 under setting [1] and 4 ± 0.53 under setting [2].
With GCQPEDRRRRIIINVGGIKYSLPW [KCNG1], the protein stability index runs as follows: under setting [1], 2.36 ± 0.52; under setting [2], 2.5 ± 0.44.
Taken in the same sequence, the figures for GDWSAFNQAPSGPVASSGEFFGSA [CLINT1] were 4.16 ± 0.26 and 4.31 ± 0.18.
Turning to GGAAWSIGAAPFSGRRNWCSYVVT [EMID1], the protein stability index is 1.94 ± 0.58 under setting [1] and 2.08 ± 0.095 under setting [2].
The sequence GGAVVANYPYDKSFEHRVRGVRRT [CPN1] returned a protein stability index under setting [1] of 4.25 ± 0.29 and a protein stability index under setting [2] of 4.29 ± 0.15.
Taken in the same sequence, the figures for GGSSAVGQFVSLDGAGKTPTLGGG [BRF1] were 4.34 ± 0.49 and 4.82 ± 0.33.
As for GGTLFSLEEGSSFWNQGLTWKVLF [CLCN6], the protein stability index by setting is: under setting [1], 2.7 ± 0.46; under setting [2], 2.6 ± 0.81.
For the sequence GGYNLASVSVWDLAAPSLHVKEQL [TLE6], the protein stability index came to 2.38 ± 0.16 under setting [1] and 2.68 ± 0.33 under setting [2].
On to GHNFCRGCVSRCWEVQVSPTCPVC [TRIM35], for which the protein stability index runs as follows: under setting [1], 3.86 ± 0.22; under setting [2], 3.83 ± 0.38.
Regarding GHSHHSHHGHPSHQSHSLPNRRH [C10orf62], the protein stability index came out at 2.97 ± 0.49 under setting [3] and 3.71 ± 0.35 under setting [4].
As for GIFLFCVCVIAIGVVQALIVGYAF [TMEM175], the protein stability index is, setting by setting: under setting [1], 2.6 ± 0.56; under setting [2], 2.33 ± 0.56.
Take GISAKVFGATTNYGKDIVKACSLL [ZBED1]: the protein stability index came out at 2.33 ± 0.4 under setting [1] and 2.26 ± 0.35 under setting [2].
Consider GISNALHRLKLRLAIQEMVSLTSP [PPFIA4], for which the protein stability index runs as follows: under setting [1], 2.46 ± 0.22; under setting [2], 2.18 ± 0.13.
Taken in the same sequence, the figures for GKAAQAGVAVGDWVLSIDGENAGS [PDLIM7] were 3.97 ± 0.24 and 4.2 ± 0.42.
Take GLAANGALQRLDLRNNQISHKGAE [LRRC45]: the protein stability index was 4.23 ± 0.4 under setting [1] and 4.57 ± 0.18 under setting [2].
Sequence GLWGTTLTENTAENRELYIKTTLR [PKD2L1] yielded a protein stability index under setting [1] of 3.19 ± 0.15 and a protein stability index under setting [2] of 3.2 ± 0.17.
For the sequence GMNGQMLCNLGKERFLELAPDFVG [ETS2], the protein stability index runs as follows: under setting [1], 2.89 ± 0.32; under setting [2], 2.91 ± 0.21.
Take GMRRKSLLTRKVICKSDAPTGDVL [GOLPH3]: the protein stability index was 3.51 ± 0.18 under setting [1] and 3.53 ± 0.52 under setting [2].
Taken in the same sequence, the figures for GNEKSIIDCKFNAESQGCNHEEDA [LOXL2] were 5.65 ± 0.23 and 5.57 ± 0.47.
